US20200339681A1

Molecular target: heparan sulfate proteoglycan (HSPG) on HeLa cells
Assay: cell-based or functional assay

Alexa488 fluorescence intensity in HeLa cells (confocal microscopy, 1 µM, 6 h): 20%
B1: CT-59 (antibody, part only; not given: TMab4 heavy chain variable domain, V domains shown, part only)
VL: DIQMTQSPSSLSASVGDRVTITCKSSQSLLNSRDGKNYLAWYQQKPGKAPKLLIYWASTRESGVPSRFSGSGSGTDFTLTISSLQPEDFATYFCQQYWYWMYTFGQGTKVEIKR
